In test [1] the target is BBLF1-Flag (Epstein-Barr virus).
Test [2] addresses SDE-BBLF1-Flag (Epstein-Barr virus).

The values that follow come from publication PMC6993569.

B1: BGLF2-GFP (natural protein)
chain: MASAANSSREQLRKFLNKECLWVLSDASTPQMKVYTATTAVSAVYVPQIAGPPKTYMNVTLIVLKPKKKPTYVTVYINGTLATVARPEVLFTKAVQGPHSLTLMYFGVFSDAVGEAVPVEIRGNPVVTCTDLTTAHVFTTSTAVKTVEELQDITPSEIIPLGRGGAWYAEGALYMFFVNMDMLMCCPNMPTFPSLTHFINLLTRCDNGECVTCYGAGAHVNILRGWTEDDSPGTSGTCPCLLPCTALNNDYVPITGHRALLGLMFKPEDAPFVVGLRFNPPKMHPDMSRVLQGVLANGKEVPCTAQPWTLLRFSDLYSRAMLYNCQVLKRQVLHSY
Take B1: the recruitment of BGLF2-GFP to the TGN (colocalisation with TGN46) in cotransfected A7 cells, confocal microscopy (% of transfected cells) in test [1] and in test [2] was 70 throughout.
